The labels stand for the following.
B1: decoration protein pb10 (natural protein, bacteriophage T5, UniProt Q6QGD6 1-164, looked up)
chain: MIDYSGLRTIFGEKLPESHIFFATVAAHKYVPSYAFLRRELGLSSAHTNRKVWKKFVEAYGKAIPPAPPAPPLTLSKDLTASMSVEEGAALTLSVTATGGTGPYTYAWTKDGSPIPDASGATYTKPTAAAEDAGSYKVTVTDSKQVSKDSTTCAVTVNPTVPGG
notes: decoration protein pb10 of bacteriophage T5, 164 residues; alpha-helical domain and Ig-like domain; only residues 2-68 (alpha-helical domain) were resolved; One pb10 at the centre of each hexon; the Ig-like domain is flexible and was not modelled; also called gp10
B2: distal tail protein pb9 (natural protein, bacteriophage T5)
chain: MRLPDPYTNPEYPGLGFESVNLVDNDPMIRDELPNGKVKEVKISAQYWGINISYPELFPDEYAFLDSRLLEYKRTGDYLDVLLPQYEAFRVRGDTKSVTIPAGQKGSQIILNTNGTLTGQPKAGDLFKLSTHPKVYKITNFSSSGNVWNISLYPDLFITTTGSEKPVFNGILFRTKLMNGDSFGSTLNNNGTYSGISLSLRESL
notes: distal tail protein pb9 of bacteriophage T5
B3: baseplate hub protein pb3 (natural protein, bacteriophage T5)
chain: MKKILDSAKNYLNTHDKLKTACLIALELPSSSGSAATYIYLTDYFRDVTYNGILYRSGKVKSISSHKQNRQLSIGSLSFTITGTAEDEVLKLVQNGVSFLDRGITIHQAIINEEGNILPVDPDTDGPLLFFRGRITGGGIKDNVNTSGIGTSVITWNCSNQFYDFDRVNGRYTDDASHRGLEVVNGTLQPSNGAKRPEYQEDYGFFHSNKSTTILAKYQVKEERYKLQSKKKLFGLSRSYSLKKYYETVTKEVDLDFNLAAKFIPVVYGVQKIPGIPIFADTELNNPNIVYVVYAFAEGEIDGFLDFYIGDSPMICFDETDSDTRTCFGRKKIVGDTMHRLAAGTSTSQPSVHGQEYKYNDGNGDIRIWTFHGKPDQTAAQVLVDIAKKKGFYLQNQNGNGPEYWDSRYKLLDTAYAIVRFTINENRTEIPEISAEVQGKKVKVYNSDGTIKADKTSLNGIWQLMDYLTSDRYGADITLDQFPLQKVISEAKILDIIDESYQTSWQPYWRYVGWNDPLSENRQIVQLNTILDTSESVFKNVQGILESFGGAINNLSGEYRITVEKYSTNPLRINFLDTYGDLDLSDTTGRNKFNSVQASLVDPALSWKTNSITFYNSKFKEQDKGLDKKLQLSFANITNYYTARSYADRELKKSRYSRTLSFSVPYKFIGIEPNDPIAFTYERYGWKDKFFLVDEVENTRDGKINLVLQEYGEDVFINSEQVDNSGNDIPDISNNVLPPRDFKYTPTPGGVVGAIGKNGELSWLPSLTNNVVYYSIAHSGHVNPYIVQQLENNPNERMIQEIIGEPAGLAIFELRAVDINGRRSSPVTLSVDLNSAKNLSVVSNFRVVNTASGDVTEFVGPDVKLAWDKIPEEEIIPEIYYTLEIYDSQDRMLRSVRIEDVYTYDYLLTYNKADFALLNSGALGINRKLRFRIRAEGENGEQSVGWATI
notes: baseplate hub protein pb3 of bacteriophage T5
B4: portal protein pb7 (natural protein, bacteriophage T5)
chain: LNPGQRIIRDMEPVSHRTNRKPFTTGQAYSKIEILNRTANMVIDSAAECSYTVGDKYNIVTYANGVKTKTLDTLLNVRPNPFMDISTFRRLVVTDLLFEGCAYIYWDGTSLYHVPAALMQVEADANKFIKKFIFNNQINYRVDEIIFIKDNSYVCGTNSQISGQSRVATVIDSLEKRSKMLNFKEKFLDNGTVIGLILETDEILNKKLRERKQEELQLDYNPSTGQSSVLILDGGMKAKPYSQISSFKDLDFKEDIEGFNKSICLAFGVPQVLLDGGNNANIRPNIELFYYMTIIPMLNKLTSSLTFFFGYKITPNTKEVAALTPDKEAEAKHLTSLVNNGIITGNEARSELNLEPLDDEQMNKIRIPANVAGSATGVSGQEGGRPKGSTEGD
notes: portal protein pb7 of bacteriophage T5, 403 residues in total; atomic model built for residues 11-377; source: also in virions treated with 4 M urea for 2 h at 37 °C and dialyzed; copies: 12
B5: major capsid protein (MCP) pb8 (natural protein, bacteriophage T5, UniProt Q6QGD8 160-458, looked up)
chain: AVNQSSSVEVSSESYETIFSQRIIRDLQKELVVGALFEELPMSSKILTMLVEPDAGKATWVAASTYGTDTTTGEEVKGALKEIHFSTYKLAAKSFITDETEEDAIFSLLPLLRKRLIEAHAVSIEEAFMTGDGSGKPKGLLTLASEDSAKVVTEAKADGSVLVTAKTISKLRRKLGRHGLKLSKLVLIVSMDAYYDLLEDEEWQDVAQVGNDSVKLQGQVGRIYGLPVVVSEYFPAKANSAEFAVIVYKDNFVMPRQRAVTVERERQAGKQRDAYYVTQRVNLQRYFANGVVSGTYAAS
notes: major capsid protein pb8 of bacteriophage T5, 458 residues; atomic model built for residues 164-457; also called MCP gp8; gp8
B6: p140 (natural protein, bacteriophage T5)
chain: MFYSLMRESKIVIEYDGRGYHFDALSNYDASTSFQEFKTLRRTIHNRTNYADSIINAQDPSSISLAINFSTTLIESNFFDWMGFTREGNSLFLPRNTPNIEPIMFNMYIINHNNSCIYFENCYVSTVDFSLDKSIPILNVGIESGKFSEVSTFRDGYTITQGEVLPYSAPAVYTNSSPLPALISASMSFQQQCSWREDRNIFDINKIYTNKRAYVNEMNASATLAFYYVKRLVGDKFLNLDPETRTPLIIKNKYVSITFPLARISKRLNFSDLYQVEYDVIPTADSDPVEINFFGERK
notes: tail tip complex protein p140 of bacteriophage T5
B7: tail tube protein (TTP) pb6 (natural protein, bacteriophage T5)
chain: MSLQLLRNTRIFVSTVKTGHNKTNTQEILVQDDISWGQDSNSTDITVNEAGPRPTRGSKRFNDSLNAAEWSFSTYILPYKDKNTSKQIVPDYMLWHALSSGRAINLEGTTGAHNNATNFMVNFKDNSYHELAMLHIYILTDKTWSYIDSCQINQAEVNVDIEDIGRVTWSGNGNQLIPLDEQPFDPDQIGIDDETYMTIQGSYIKNKLTILKIKDMDTNKSYDIPITGGTFTINNNITYLTPNVMSRVTIPIGSFTGAFELTGSLTAYLNDKSLGSMELYKDLIKTLKVVNRFEIALVLGGEYDDERPAAILVAKQAHVNIPTIETDDVLGTSVEFKAIPSDLDAGDEGYLGFSSKYTRTTINNLIVNGDGATDAVTAITVKSAGNVTTLNRSATLQMSVEVTPSSARNKEVTWAITAGDAATINATGLLRADASKTGAVTVEATAKDGSGVKGTKVITVTAGG
notes: tail tube protein pb6 of bacteriophage T5; domains pb6D1, pb6D2 and a protruding Ig-like domain; atomic model built for residues 3-378 (pb6D1 and pb6D2); The tail tube has 40 stacked trimeric rings

What all share (test): cryo-EM structure; mature T5 virions (fiberless mutant) purified by CsCl gradients, in buffer A (100 mM NaCl, 1 mM MgSO4, 1 mM CaCl2, 10 mM Tris-HCl, pH 7.6); icosahedral, symmetry-mismatch and local reconstructions of head, portal, connector, tail tube and tail tip
Data set [1] has as its target tail terminator protein p142 (bacteriophage T5).
Data set [2] deals with adaptor protein p144 (bacteriophage T5).
Data set [3] has as its target B5. The conditions noted are these: both partners purified.
Data set [4] concerns the molecule itself.

Turning to “tail terminator protein p142 (natural protein)”, the stoichiometry N in data set [1] stood at 6.

In turn, adaptor protein p144 (natural protein) came in with a stoichiometry N in data set [2] of 12.

As for B1, the binding result in data set [3] is “binds”.

Consider B2, for which the “stoichiometry N” value in data set [4] came to 6.

Regarding B3, the “stoichiometry N” value in data set [4] was 3.

Consider B4, for which, in data set [4], the “stoichiometry N” value stood at 12.

For B5, the “stoichiometry N” value in data set [4] turned out to be 775.

Take B6: the “stoichiometry N” value in data set [4] was 3.

Take B7: the “stoichiometry N” value in data set [4] turned out to be 3.

The record behind these values is publication PMC11313276, “Structures of Mature and Urea-Treated Empty Bacteriophage T5: Insights into Siphophage Infection and DNA Ejection” (International Journal of Molecular Sciences, 2024).
